Laboratory results taken from patent US20020012949A1, “Assay systems for leptin-enhancing agents” (priority 1997, published 2002).

Biological target: T1, OB-RY986F (Homo sapiens, UniProt P48357, Y986F)
T1 construct: cells transfected with the full-length OB-R constructs; expressed in transfected cells; host or cells: COS-7
T1 sequence (P48357 22-1165 Y986F): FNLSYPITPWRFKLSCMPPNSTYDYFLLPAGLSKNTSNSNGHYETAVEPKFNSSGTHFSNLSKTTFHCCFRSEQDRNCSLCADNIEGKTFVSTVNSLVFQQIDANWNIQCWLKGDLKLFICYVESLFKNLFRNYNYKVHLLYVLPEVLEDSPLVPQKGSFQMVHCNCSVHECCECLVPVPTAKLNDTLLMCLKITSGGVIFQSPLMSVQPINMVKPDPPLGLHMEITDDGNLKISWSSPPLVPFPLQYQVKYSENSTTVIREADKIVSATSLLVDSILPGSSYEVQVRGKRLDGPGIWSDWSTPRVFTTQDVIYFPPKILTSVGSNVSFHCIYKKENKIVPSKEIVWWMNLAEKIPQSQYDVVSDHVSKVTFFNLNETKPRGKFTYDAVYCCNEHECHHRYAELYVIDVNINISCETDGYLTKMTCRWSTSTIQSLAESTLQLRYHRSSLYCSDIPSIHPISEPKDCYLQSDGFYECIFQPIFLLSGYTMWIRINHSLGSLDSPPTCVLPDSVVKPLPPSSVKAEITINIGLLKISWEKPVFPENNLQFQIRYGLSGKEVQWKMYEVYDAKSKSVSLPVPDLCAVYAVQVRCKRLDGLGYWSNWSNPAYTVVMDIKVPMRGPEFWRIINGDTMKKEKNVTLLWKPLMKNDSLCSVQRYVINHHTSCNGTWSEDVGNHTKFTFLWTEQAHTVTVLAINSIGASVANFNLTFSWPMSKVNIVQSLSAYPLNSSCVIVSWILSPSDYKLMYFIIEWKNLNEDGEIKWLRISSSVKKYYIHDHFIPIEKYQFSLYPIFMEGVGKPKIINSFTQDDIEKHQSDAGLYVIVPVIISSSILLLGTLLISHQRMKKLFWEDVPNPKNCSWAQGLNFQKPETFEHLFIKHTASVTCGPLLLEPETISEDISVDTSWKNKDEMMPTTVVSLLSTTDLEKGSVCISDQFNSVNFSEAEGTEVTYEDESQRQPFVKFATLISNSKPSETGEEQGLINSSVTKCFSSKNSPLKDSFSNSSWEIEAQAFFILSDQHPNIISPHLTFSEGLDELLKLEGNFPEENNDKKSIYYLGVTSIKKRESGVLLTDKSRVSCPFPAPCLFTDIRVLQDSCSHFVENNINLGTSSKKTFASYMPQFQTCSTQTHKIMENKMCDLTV
Assay: Luciferase reporter gene assay (3(G3)-Cy6-LUC), leptin stimulation of COS cells expressing mutant OB-RY986F
Assay type: cell-based
Settings: mutant receptor OB-RY986F, 100 ng/ml leptin for 24 hours
Description: The cytoplasmic domain and full-length human OB-R was cloned by PCR using human fetal liver and adipocyte cDNA (Clontech) and cloned into the expression vectors pCMX and pMT21. Chimeric receptors were constructed by fusing the extracellular domain and transmembrane domain of TrkC (amino acids 1 to 458) to the cytoplasmic domain of OB-R (amino acids 865-1165). A triple myc epitope tag was added at the C-terminus of all OB-R constructs (18). Truncation and point mutant constructs were generated by PCR and the sequences of all constructs were verified. Expression constructs were transfected into COS-7 cells using lipofectamine (GIBCO-BRL); 36-48 hours after transfection, cells were starved for either 2 hour,s for chimeric receptors or overnight for full-length receptors prior to stimulation.
Expression constructs (1 μg) for OB-R, OB-RY1141F, OB-RY986F, OB-RY1078, 1079F, and OB-RY986, 1141F were co-transfected with 1 μg of 3(G3)-Cy6-LUC and 0.1 μg of pCMX.LacZ into COS-7 cells (6-well dishes) using lipofectamine. The day after transfection, media was changed to serum-free OptiMEM (GIBCO-BRL) and then treated with 100 ng/ml murine leptin (PeproTech) or human leptin (R&D Systems) for 24 hours. […] Luciferase and β-galactosidase activities were measured in cell lysates (30) and luciferase activity was normalized to β-galactosidase activity to control for transfection differences. […]

leptin: the product of the obese gene, secreted by adipocytes; ligand of OB-R
increase in luciferase activity: 20 fold
